Two substances from PMC12401731 can be followed below.

Experiment [1] has as its target HIV-1 RT p66 with TEV-cleavable N-terminal His tag (HTp66) (HIV-1). Nature of the experiment: mass photometry.
Experiment [2] shares this target. The experiment can be described thus: cross-linking + other: mass photometry.
Another experiment deals with HTp66 K259A (HIV-1). Nature of the experiment: mass photometry.

Regarding “HIV-1 RT p66 with TEV-cleavable N-terminal His tag (HTp66) (enzyme)”, in experiment [1], the percent dimer at 500 nM JLJ648 worked out at 58%. Also, in experiment [2], the percent of the population as dimer stood at 26%. HTp66 K259A (enzyme) yielded a percent dimer at 500 nM JLJ648 in the experiment with HTp66 K259A (HIV-1) of 52%.
